The assay deals with CD40 on murine bone cells (MLO-Y4 osteocyte cell line, primary osteoblasts, MC3T3, OCT-1 and 2T3 osteoblast cell lines) (mouse) (UniProt P27512). In words: cell-based or functional assay.
UniProt P27512, sequence (P27512 20-289): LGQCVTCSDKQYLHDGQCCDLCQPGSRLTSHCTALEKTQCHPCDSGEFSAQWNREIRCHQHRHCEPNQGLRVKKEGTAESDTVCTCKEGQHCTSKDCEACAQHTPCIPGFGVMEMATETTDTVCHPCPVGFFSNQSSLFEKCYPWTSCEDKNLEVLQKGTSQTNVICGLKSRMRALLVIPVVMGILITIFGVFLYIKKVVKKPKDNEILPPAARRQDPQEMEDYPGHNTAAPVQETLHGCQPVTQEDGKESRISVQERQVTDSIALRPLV

Take Soluble, trimeric CD40L (ligand): the percent positive cells, Annexin V (MLO-Y4 cells, CD40L alone) (percent positive cells) amounted to 11.5; the percent positive cells, Annexin V (MLO-Y4 cells, Dex + CD40L) (percent positive cells) turned out to be 13.7; the percent positive cells, Annexin V (MLO-Y4 cells, TNF + CD40L) (percent positive cells) was 13.9; the percent positive cells, GFP (MLO-Y4 cells, CD40L alone) (percent positive cells) was determined as 8.7. The percent positive cells, GFP (MLO-Y4 cells, Dex + CD40L) (percent positive cells) worked out at 9.9; the percent positive cells, GFP (MLO-Y4 cells, Etoposide + CD40L) (percent positive cells) turned out to be 8.4; the percent positive cells, GFP (MLO-Y4 cells, TNF + CD40L) (percent positive cells) was 15; the percent positive cells, Trypan Blue (MLO-Y4 cells, CD40L alone) (percent positive cells) stood at 7.2. Moreover, the percent positive cells, Trypan Blue (MLO-Y4 cells, Dex + CD40L) (percent positive cells) is 7.8; the percent positive cells, Trypan Blue (MLO-Y4 cells, Etoposide + CD40L) (percent positive cells) was 7.9; the percent positive cells, Trypan Blue (MLO-Y4 cells, TNF + CD40L) (percent positive cells) amounted to 12.9.

Source of the values: patent US20030099644A1.
